According to PMC4837482, “The complex binding mode of the peptide hormone H2 relaxin to its receptor RXFP1” (Nature Communications, 2016):
Where a chain is given by its changes, count along the chain named.

What was measured:
Assay in all cases: cAMP activity assay (pCRE β-galactosidase reporter), transfected HEK293T cells
Format in all cases: cell-based
RXFP1 E67A = biological target: T1, RXFP1 E67A (Homo sapiens, UniProt Q9HBX9, E89A); settings: construct E67A, ±s.e.m.
T1 construct: cells expressing full-length RXFP1 and mutants; expressed in transfected cells; host or cells: HEK293T
T1 sequence (Q9HBX9 23-757 E89A limits assumed): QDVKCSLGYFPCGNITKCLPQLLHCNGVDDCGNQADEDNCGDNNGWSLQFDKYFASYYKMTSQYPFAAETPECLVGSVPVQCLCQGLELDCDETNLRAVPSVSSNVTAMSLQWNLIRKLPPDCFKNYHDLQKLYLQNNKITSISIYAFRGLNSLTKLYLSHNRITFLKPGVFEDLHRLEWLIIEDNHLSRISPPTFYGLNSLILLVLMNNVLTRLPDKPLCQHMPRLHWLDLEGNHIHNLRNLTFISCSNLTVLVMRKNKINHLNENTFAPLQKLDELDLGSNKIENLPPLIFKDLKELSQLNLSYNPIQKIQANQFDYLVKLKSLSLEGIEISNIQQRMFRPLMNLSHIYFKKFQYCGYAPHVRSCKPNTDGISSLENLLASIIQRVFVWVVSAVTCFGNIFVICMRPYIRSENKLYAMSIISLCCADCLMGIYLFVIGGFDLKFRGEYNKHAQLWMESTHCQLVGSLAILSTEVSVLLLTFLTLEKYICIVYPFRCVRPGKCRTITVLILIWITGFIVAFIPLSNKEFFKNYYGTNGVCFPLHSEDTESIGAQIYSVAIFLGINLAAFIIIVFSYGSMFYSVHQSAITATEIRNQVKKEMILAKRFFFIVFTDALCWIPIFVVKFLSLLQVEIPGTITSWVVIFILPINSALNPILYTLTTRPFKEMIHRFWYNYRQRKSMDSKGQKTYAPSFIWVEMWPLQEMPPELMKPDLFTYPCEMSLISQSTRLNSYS
In short: (§1)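 H2 relaxin dilutions in minimal media with 1% DMSO; 5 μM Forskolin as positive control, media/1% DMSO as negative. After freezing at −80 °C, cells lysed in pH 8.0 phosphate buffers and chlorophenol red-β-D-galactopyranoside added; absorbance read at 570 nm. Responses given as % of 5 μM Forskolin maximum.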

RXFP1 F50A = biological target: T2, RXFP1 F50A (Homo sapiens, UniProt Q9HBX9, F72A); settings: construct F50A, ±s.e.m.
T2 construct: expressed in transfected cells; host or cells: HEK293T
T2 sequence (Q9HBX9 23-757 F72A limits assumed): T1 sequence (Q9HBX9 23-757 E89A limits assumed) with F50A, A67E
In short: as §1

RXFP1 N43A = biological target: T3, RXFP1 N43A (Homo sapiens, UniProt Q9HBX9, N65A); settings: construct N43A, ±s.e.m.
T3 construct: transiently transfected human embryonic kidney (HEK) 293T cells expressing full-length RXFP1 and mutants; expressed in transfected cells; host or cells: HEK293T
T3 sequence (Q9HBX9 23-757 N65A limits assumed): T1 sequence (Q9HBX9 23-757 E89A limits assumed) with N43A, A67E
In short: as §1

[1] = percentage of maximum response to 5 μM Forskolin

H2 relaxin: two-chain 6-kDa peptide hormone structurally related to insulin; recombinant human gene-2 H2 relaxin provided by Corthera
H2 relaxin pEC50 (RXFP1 E67A; cAMP reporter): 11.13±0.13 | H2 relaxin Emax (RXFP1 E67A; [1]): 141.74±27.08 (5) % | H2 relaxin pEC50 (RXFP1 F50A; cAMP reporter): 9.45±0.07 (4) | H2 relaxin Emax (RXFP1 F50A; [1]): 91.9±2.1 (4) % | H2 relaxin pEC50 (RXFP1 N43A; cAMP reporter): 9.06±0.48 (4) | H2 relaxin Emax (RXFP1 N43A; [1]): 120.23±7.81 (4) %
